# Laboratory results reported in patent publication US20190076400A1 (PROTAGONIST THERAPEUTICS, published 2019).
# Numbered stars: 1 amine (or outer) side, 2 acyl side, 3 side chain; on linkers, the order of the positions; unused ones are H or OH. Square brackets hold non-standard residues; d marks the D form. Phe(2,6-Me2,4-CONH2) = Cc1cc(C(N)=O)cc(C)c1C[C@H](N)C(=O)O; Bip = N[C@@H](Cc1ccc(-c2ccccc2)cc1)C(=O)O; NMeW = CN[C@@H](Cc1c[nH]c2ccccc12)C(=O)O; Phe(4-CN) = N#Cc1ccc(C[C@H](N)C(=O)O)cc1; Phe(4-F) = N[C@@H](Cc1ccc(F)cc1)C(=O)O; Dmt = Cc1cc(O)cc(C)c1C[C@H](N)C(=O)O; NMeI = CC[C@H](C)[C@H](NC)C(=O)O; hPhe = N[C@@H](CCc1ccccc1)C(=O)O; NMeβAla = CN(CCC(=O)[*:2])[*:1]; Tic = O=C(O)[C@@H]1Cc2ccccc2CN1; dTic = O=C(O)[C@H]1Cc2ccccc2CN1; β3hF = N[C@H](CC(=O)O)Cc1ccccc1; NMeL = CN[C@@H](CC(C)C)C(=O)O; NMeNva = CCC[C@H](NC)C(=O)O; NMeV = CN[C@H](C(=O)O)C(C)C; NMeA = CN[C@@H](C)C(=O)O; Nle = CCCC[C@H](N)C(=O)O; dNMeA = CN[C@H](C)C(=O)O; Aib = CC(C)(N)C(=O)O; Sar = CNCC(=O)O
# B1: H-DMT-dTic-G-F-Sar-NH2 (peptide)
# peptide: H-[Dmt][dTic]GF[Sar]-NH2
# SMILES: Cc1cc(O)cc(C)c1C[C@H](N)C(=O)N1Cc2ccccc2C[C@@H]1C(=O)NCC(=O)N[C@@H](Cc1ccccc1)C(=O)N(C)CC(N)=O
# B2: H-DMT-(D)Tyr-G-bhF-Sar-NH2 (peptide)
# peptide: H-[Dmt][dY]G[β3hF][Sar]-NH2
# SMILES: Cc1cc(O)cc(C)c1C[C@H](N)C(=O)N[C@H](Cc1ccc(O)cc1)C(=O)NCC(=O)N[C@H](CC(=O)N(C)CC(N)=O)Cc1ccccc1
# B3: H-DMT-r-Phe(4-F)-Sar-NH2 (peptide)
# peptide: H-[Dmt][dR][Phe(4-F)][Sar]-NH2
# SMILES: Cc1cc(O)cc(C)c1C[C@H](N)C(=O)N[C@H](CCCNC(=N)N)C(=O)N[C@@H](Cc1ccc(F)cc1)C(=O)N(C)CC(N)=O
# B4: H-Phe(DMC)-G-G-bhF-Sar-NH2 (peptide)
# peptide: H-[Phe(2,6-Me2,4-CONH2)]GG[β3hF][Sar]-NH2
# SMILES: Cc1cc(C(N)=O)cc(C)c1C[C@H](N)C(=O)NCC(=O)NCC(=O)N[C@H](CC(=O)N(C)CC(N)=O)Cc1ccccc1
# B5: H-DMT-(D)Asp-G-bhF-Sar-NH2 (peptide)
# peptide: H-[Dmt][dD]G[β3hF][Sar]-NH2
# SMILES: Cc1cc(O)cc(C)c1C[C@H](N)C(=O)N[C@H](CC(=O)O)C(=O)NCC(=O)N[C@H](CC(=O)N(C)CC(N)=O)Cc1ccccc1
# B6: H-DMT-r-Phe(4-CN)-Sar-NH2 (peptide)
# peptide: H-[Dmt][dR][Phe(4-CN)][Sar]-NH2
# SMILES: Cc1cc(O)cc(C)c1C[C@H](N)C(=O)N[C@H](CCCNC(=N)N)C(=O)N[C@@H](Cc1ccc(C#N)cc1)C(=O)N(C)CC(N)=O
# B7: H-DMT-Tic-G-bhF-Sar-NH2 (peptide)
# peptide: H-[Dmt][Tic]G[β3hF][Sar]-NH2
# SMILES: Cc1cc(O)cc(C)c1C[C@H](N)C(=O)N1Cc2ccccc2C[C@H]1C(=O)NCC(=O)N[C@H](CC(=O)N(C)CC(N)=O)Cc1ccccc1
# B8: H-DMT-r-H-K-NH2 (peptide)
# peptide: H-[Dmt][dR]HK-NH2
# SMILES: Cc1cc(O)cc(C)c1C[C@H](N)C(=O)N[C@H](CCCNC(=N)N)C(=O)N[C@@H](Cc1c[nH]cn1)C(=O)N[C@@H](CCCCN)C(N)=O
# B9: H-DMT-N(Me)-a-F-Sar-NH2 (peptide)
# peptide: H-[Dmt][dNMeA]F[Sar]-NH2
# SMILES: Cc1cc(O)cc(C)c1C[C@H](N)C(=O)N(C)[C@H](C)C(=O)N[C@@H](Cc1ccccc1)C(=O)N(C)CC(N)=O
# B10: H-DMT-r-Bip-K-NH2 (peptide)
# peptide: H-[Dmt][dR][Bip]K-NH2
# SMILES: Cc1cc(O)cc(C)c1C[C@H](N)C(=O)N[C@H](CCCNC(=N)N)C(=O)N[C@@H](Cc1ccc(-c2ccccc2)cc1)C(=O)N[C@@H](CCCCN)C(N)=O
# B11: H-DMT-a-hF-Sar-NH2 (peptide)
# peptide: H-[Dmt][dA][hPhe][Sar]-NH2
# SMILES: Cc1cc(O)cc(C)c1C[C@H](N)C(=O)N[C@H](C)C(=O)N[C@@H](CCc1ccccc1)C(=O)N(C)CC(N)=O
# B12: H-DMT-a-Leu-bhF-Sar-NH2 (peptide)
# peptide: H-[Dmt][dA]L[β3hF][Sar]-NH2
# SMILES: Cc1cc(O)cc(C)c1C[C@H](N)C(=O)N[C@H](C)C(=O)N[C@@H](CC(C)C)C(=O)N[C@H](CC(=O)N(C)CC(N)=O)Cc1ccccc1
# B13: H-DMT-G-G-bhF-Sar-NH2 (peptide)
# peptide: H-[Dmt]GG[β3hF][Sar]-NH2
# SMILES: Cc1cc(O)cc(C)c1C[C@H](N)C(=O)NCC(=O)NCC(=O)N[C@H](CC(=O)N(C)CC(N)=O)Cc1ccccc1
# B14: H-DMT-a-Aib-bhF-Sar-NH2 (peptide)
# peptide: H-[Dmt][dA][Aib][β3hF][Sar]-NH2
# SMILES: Cc1cc(O)cc(C)c1C[C@H](N)C(=O)N[C@H](C)C(=O)NC(C)(C)C(=O)N[C@H](CC(=O)N(C)CC(N)=O)Cc1ccccc1
# B15: H-DMT-dTic-F-Sar-NH2 (peptide)
# peptide: H-[Dmt][dTic]F[Sar]-NH2
# SMILES: Cc1cc(O)cc(C)c1C[C@H](N)C(=O)N1Cc2ccccc2C[C@@H]1C(=O)N[C@@H](Cc1ccccc1)C(=O)N(C)CC(N)=O
# B16: H-Phe(DMC)-Tic-G-bhF-Sar-NH2 (peptide)
# peptide: H-[Phe(2,6-Me2,4-CONH2)][Tic]G[β3hF][Sar]-NH2
# SMILES: Cc1cc(C(N)=O)cc(C)c1C[C@H](N)C(=O)N1Cc2ccccc2C[C@H]1C(=O)NCC(=O)N[C@H](CC(=O)N(C)CC(N)=O)Cc1ccccc1
# B17: H-DMT-r-F-Sar-NH2 (peptide)
# peptide: H-[Dmt][dR]F[Sar]-NH2
# SMILES: Cc1cc(O)cc(C)c1C[C@H](N)C(=O)N[C@H](CCCNC(=N)N)C(=O)N[C@@H](Cc1ccccc1)C(=O)N(C)CC(N)=O
# B18: H-Phe(DMC)-(D)Thr-G-bhF-Sar-NH2 (peptide)
# peptide: H-[Phe(2,6-Me2,4-CONH2)][dT]G[β3hF][Sar]-NH2
# SMILES: Cc1cc(C(N)=O)cc(C)c1C[C@H](N)C(=O)N[C@@H](C(=O)NCC(=O)N[C@H](CC(=O)N(C)CC(N)=O)Cc1ccccc1)[C@H](C)O
# B19: H-DMT-a-hF-Nle-NH2 (peptide)
# peptide: H-[Dmt][dA][hPhe][Nle]-NH2
# SMILES: CCCC[C@H](NC(=O)[C@H](CCc1ccccc1)NC(=O)[C@@H](C)NC(=O)[C@@H](N)Cc1c(C)cc(O)cc1C)C(N)=O
# B20: H-DMT-a-ILeu-bhF-Sar-NH2 (peptide)
# peptide: H-[Dmt][dA]I[β3hF][Sar]-NH2
# SMILES: CC[C@H](C)[C@H](NC(=O)[C@@H](C)NC(=O)[C@@H](N)Cc1c(C)cc(O)cc1C)C(=O)N[C@H](CC(=O)N(C)CC(N)=O)Cc1ccccc1
# B21: H-DMT-r-W-N(Me)bAla-OH (peptide)
# peptide: H-[Dmt][dR]W[NMeβAla]-OH
# SMILES: Cc1cc(O)cc(C)c1C[C@H](N)C(=O)N[C@H](CCCNC(=N)N)C(=O)N[C@@H](Cc1c[nH]c2ccccc12)C(=O)N(C)CCC(=O)O
# B22: H-DMT-(D)Thr-G-bhF-Sar-NH2 (peptide)
# peptide: H-[Dmt][dT]G[β3hF][Sar]-NH2
# SMILES: Cc1cc(O)cc(C)c1C[C@H](N)C(=O)N[C@@H](C(=O)NCC(=O)N[C@H](CC(=O)N(C)CC(N)=O)Cc1ccccc1)[C@H](C)O
# B23: H-DMT-(D)Asp-G-bhF-N(Me)-Leu-OH (peptide)
# peptide: H-[Dmt][dD]G[β3hF][NMeL]-OH
# SMILES: Cc1cc(O)cc(C)c1C[C@H](N)C(=O)N[C@H](CC(=O)O)C(=O)NCC(=O)N[C@H](CC(=O)N(C)[C@@H](CC(C)C)C(=O)O)Cc1ccccc1
# B24: H-DMT-(D)Asp-G-bhF-N(Me)-Trp-OH (peptide)
# peptide: H-[Dmt][dD]G[β3hF][NMeW]-OH
# SMILES: Cc1cc(O)cc(C)c1C[C@H](N)C(=O)N[C@H](CC(=O)O)C(=O)NCC(=O)N[C@H](CC(=O)N(C)[C@@H](Cc1c[nH]c2ccccc12)C(=O)O)Cc1ccccc1
# B25: H-DMT-(D)Asp-G-bhF-N(Me)-Nva-OH (peptide)
# peptide: H-[Dmt][dD]G[β3hF][NMeNva]-OH
# SMILES: CCC[C@@H](C(=O)O)N(C)C(=O)C[C@H](Cc1ccccc1)NC(=O)CNC(=O)[C@@H](CC(=O)O)NC(=O)[C@@H](N)Cc1c(C)cc(O)cc1C
# B26: H-DMT-(D)Asp-G-bhF-N(Me)-Ile-OH (peptide)
# peptide: H-[Dmt][dD]G[β3hF][NMeI]-OH
# SMILES: CC[C@H](C)[C@@H](C(=O)O)N(C)C(=O)C[C@H](Cc1ccccc1)NC(=O)CNC(=O)[C@@H](CC(=O)O)NC(=O)[C@@H](N)Cc1c(C)cc(O)cc1C
# B27: H-DMT-(D)Asp-G-bhF-N(Me)-Val-OH (peptide)
# peptide: H-[Dmt][dD]G[β3hF][NMeV]-OH
# SMILES: Cc1cc(O)cc(C)c1C[C@H](N)C(=O)N[C@H](CC(=O)O)C(=O)NCC(=O)N[C@H](CC(=O)N(C)[C@H](C(=O)O)C(C)C)Cc1ccccc1
# B28: H-DMT-(D)Asp-G-bhF-N(Me)-Ala-OH (peptide)
# peptide: H-[Dmt][dD]G[β3hF][NMeA]-OH
# SMILES: Cc1cc(O)cc(C)c1C[C@H](N)C(=O)N[C@H](CC(=O)O)C(=O)NCC(=O)N[C@H](CC(=O)N(C)[C@@H](C)C(=O)O)Cc1ccccc1
# Molecular target: T1, δ-opioid receptor (DOR), Human-ORPD1 (human, UniProt P41143 1-372)
# Assay: cell-based or functional assay
# T1 sequence (P41143 whole entry, stated change not applied): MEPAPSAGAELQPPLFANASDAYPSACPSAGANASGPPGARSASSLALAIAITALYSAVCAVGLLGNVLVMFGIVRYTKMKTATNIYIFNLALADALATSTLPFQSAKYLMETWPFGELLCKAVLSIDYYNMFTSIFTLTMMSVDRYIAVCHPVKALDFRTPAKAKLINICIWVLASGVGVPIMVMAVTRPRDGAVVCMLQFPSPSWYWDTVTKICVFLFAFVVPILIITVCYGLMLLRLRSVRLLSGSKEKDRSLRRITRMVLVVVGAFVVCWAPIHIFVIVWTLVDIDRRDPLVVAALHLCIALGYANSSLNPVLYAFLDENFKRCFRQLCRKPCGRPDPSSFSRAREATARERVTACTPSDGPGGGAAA
row,Binder,DOR EC50
1,B1,≤ 1 nM
2,B2,≤ 1 nM
3,B3,≤ 10 nM
4,B4,≤ 1 nM
5,B5,≤ 1 nM
6,B6,≤ 1 nM
7,B7,≤ 200 nM
8,B8,> 200 nM
9,B9,≤ 10 nM
10,B10,> 200 nM
11,B11,≤ 1 nM
12,B12,≤ 50 nM
13,B13,≤ 1 nM
14,B14,≤ 1 nM
15,H-[Dmt][dR]X[NMeβAla]-OH (not fully specified (residue 3); printed as H-DMT-r-Homo-F-N(Me)bAla-OH) [H-DMT-r-Homo-F-N(Me)bAla-OH],≤ 1 nM
16,B15,≤ 10 nM
17,B16,≤ 200 nM
18,B17,≤ 10 nM
19,B18,≤ 1 nM
20,B19,≤ 1 nM
21,H-[Dmt][dNMeA]XG-NH2 (not fully specified (residue 3); printed as DMT-N(Me)a-Aba-G) [H-DMT-N(Me)-a-Aba-G-NH2],≤ 1 nM
22,B20,≤ 50 nM
23,B21,≤ 50 nM
24,B22,≤ 1 nM

# Molecular target: T2, µ-opioid receptor (MOR), Human-ORPM1 (human, UniProt P35372 1-400)
# Assay: cell-based or functional assay
# T2 sequence (P35372 whole entry): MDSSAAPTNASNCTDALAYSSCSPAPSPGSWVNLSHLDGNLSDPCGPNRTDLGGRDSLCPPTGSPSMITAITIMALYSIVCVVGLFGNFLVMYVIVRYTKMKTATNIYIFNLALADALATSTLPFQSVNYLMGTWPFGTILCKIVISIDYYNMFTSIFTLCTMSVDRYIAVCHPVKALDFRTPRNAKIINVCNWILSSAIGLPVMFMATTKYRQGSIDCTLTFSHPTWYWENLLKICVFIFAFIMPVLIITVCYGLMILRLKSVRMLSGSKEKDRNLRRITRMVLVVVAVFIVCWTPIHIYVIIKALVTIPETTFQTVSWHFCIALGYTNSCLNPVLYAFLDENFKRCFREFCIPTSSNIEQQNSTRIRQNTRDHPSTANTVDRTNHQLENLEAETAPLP
row,Binder,MOR EC50
1,B1,≤ 1 nM
2,B2,≤ 1 nM
3,B3,≤ 1 nM
4,B4,≤ 1 nM
5,B5,≤ 1 nM
6,B6,≤ 10 nM
7,B7,≤ 200 nM
8,B8,≤ 50 nM
9,B9,≤ 1 nM
10,B10,≤ 200 nM
11,B11,≤ 1 nM
12,B12,≤ 1 nM
13,B13,≤ 1 nM
14,B14,≤ 1 nM
15,H-[Dmt][dR]X[NMeβAla]-OH (not fully specified (residue 3); printed as H-DMT-r-Homo-F-N(Me)bAla-OH) [H-DMT-r-Homo-F-N(Me)bAla-OH],≤ 1 nM
16,B15,≤ 1 nM
17,B16,≤ 200 nM
18,B17,≤ 1 nM
19,B18,≤ 10 nM
20,B19,≤ 1 nM
21,H-[Dmt][dNMeA]XG-NH2 (not fully specified (residue 3); printed as DMT-N(Me)a-Aba-G) [H-DMT-N(Me)-a-Aba-G-NH2],≤ 1 nM
22,B20,≤ 1 nM
23,B21,≤ 1 nM
24,B22,≤ 1 nM

# Molecular target: T1, δ-opioid receptor (DOR), Human-ORPD1
# Assay: cell-based or functional assay
# Remark: another data set of the same source
row,Binder,DOR EC50
1,B23,≤ 1 nM
2,B24,≤ 1 nM
3,B25,≤ 1 nM
4,B26,≤ 1 nM
5,B27,≤ 1 nM
6,B28,≤ 1 nM

# Molecular target: T2, µ-opioid receptor (MOR), Human-ORPM1
# Assay: cell-based or functional assay
# Remark: another data set of the same source
row,Binder,MOR EC50
1,B23,≤ 1 nM
2,B24,≤ 1 nM
3,B25,≤ 1 nM
4,B26,≤ 1 nM
5,B27,≤ 1 nM
6,B28,≤ 1 nM
